Results on one molecule are retold here after article PMC8855868.

The data set concerns the target MeCP2 (human, UniProt P51608 1-486). The data set can be described thus: MST.

Chain of MeCP2 (P51608 whole entry): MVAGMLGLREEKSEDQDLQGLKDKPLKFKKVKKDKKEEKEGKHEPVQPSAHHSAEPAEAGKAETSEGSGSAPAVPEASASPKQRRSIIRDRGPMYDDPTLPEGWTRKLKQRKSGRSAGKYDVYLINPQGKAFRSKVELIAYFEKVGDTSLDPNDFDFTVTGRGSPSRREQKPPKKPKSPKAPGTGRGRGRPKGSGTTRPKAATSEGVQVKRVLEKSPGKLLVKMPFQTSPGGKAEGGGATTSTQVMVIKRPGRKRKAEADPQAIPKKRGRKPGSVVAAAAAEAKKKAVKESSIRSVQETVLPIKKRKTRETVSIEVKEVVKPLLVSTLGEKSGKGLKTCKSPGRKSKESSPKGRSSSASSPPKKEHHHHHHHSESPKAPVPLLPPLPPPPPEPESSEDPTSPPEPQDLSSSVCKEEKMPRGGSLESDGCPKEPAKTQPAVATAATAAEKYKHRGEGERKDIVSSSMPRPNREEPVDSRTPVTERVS

B1: 20 bp mC (dsDNA)
DNA 1: ACTACCATCCGGACCAGAAG
DNA 2: CTTCTGGTCCGGATGGTAGT
modifications: 5mC at position 10 of strand 1 and position 10 of strand 2 (printed as X)
For the molecule B1, the binding result was “binds”.
